This is an account of results in US10000771B2, “Nuclear targeting sequences” (Yeda Research and Development Co. Ltd., priority 2007, dated 2018).

This assay concerns the target T1, Act-GST-ERK2 (Rattus norvegicus, UniProt P63086).
T1 construct: made in house; host or cells: bacteria co-expressing active MEK1
As to the kind of experiment: In vitro kinase assay with active GST-ERK2. In kind it is biochemical. Particulars: immunoprecipitated protein as substrate, relative to GFP-ERK2. How it is done: FIGS. 4A-4I are autoradiographs characterizing SPS phosphorylation using an Ab to the phosphorylated SPS domain. FIG. 4A illustrates an elevation of pSPS detection upon stimulation. COS cells were transfected with WT-GFP-ERK2. Twenty-four hr after transfection, the cells were serum-starved for 16 hr and subsequently treated with the general stimulator VOOH (V, 100 μM Na3VO4 and 200 μM H2O2, 15 min), TPA (T, 250 nM, 15 min), EGF (E, 50 ng/ml for 15 min), or left untreated (NT). The GFP-ERK2 was immunoprecipitated with anti GFP Ab, extensively washed, and the IP was then subjected to Western blotting with anti phospho SPS-ERK (αphoSPS-ERK) and anti general ERK (αgen-ERK) Abs. FIG. 4B is a time course of SPS phosphorylation. […] SPS phosphorylation was detected using the anti pSPS Abs, and this was compared to the amount of genral ERKs detected by αgERK. […] SPS-phosphorylation was detected using αpSPS and αgERK Abs. […] The phosphorylation (^32P-ERK2) of ERK and its mutants was detected by autoradiography. […]
Some protein kinases downstream of MEKs that may be involved in the SPS phosphorylation are ERKs themselves (autophosphorylation) as their consensus phosphorylation site includes Ser/Thr followed by a Pro (Yoon and Seger, 2006, Growth Factors, 24, 21-44). […] As expected, ^32P incorporation to GFP-ERK2 was detected mainly when this protein was incubated with Act-ERK2. […]

T1 sequence (P63086 whole entry): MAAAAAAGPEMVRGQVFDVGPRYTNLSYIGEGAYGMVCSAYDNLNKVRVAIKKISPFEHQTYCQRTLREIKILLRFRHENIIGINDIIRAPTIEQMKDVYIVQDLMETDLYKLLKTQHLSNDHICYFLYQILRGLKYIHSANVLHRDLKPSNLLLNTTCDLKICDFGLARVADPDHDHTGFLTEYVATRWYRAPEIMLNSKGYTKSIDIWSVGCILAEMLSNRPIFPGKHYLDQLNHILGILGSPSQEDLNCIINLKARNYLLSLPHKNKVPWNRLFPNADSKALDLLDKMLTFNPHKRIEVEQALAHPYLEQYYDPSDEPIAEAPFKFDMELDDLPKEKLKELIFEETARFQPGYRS

B1: APA-ERK2: GFP-ERK2 with the two Ser residues of the SPS sequence replaced by Ala (protein)
chain: MAAAAAAGPEMVRGQVFDVGPRYTNLSYIGEGAYGMVCSAYDNLNKVRVAIKKISPFEHQTYCQRTLREIKILLRFRHENIIGINDIIRAPTIEQMKDVYIVQDLMETDLYKLLKTQHLSNDHICYFLYQILRGLKYIHSANVLHRDLKPSNLLLNTTCDLKICDFGLARVADPDHDHTGFLTEYVATRWYRAPEIMLNSKGYTKSIDIWSVGCILAEMLSNRPIFPGKHYLDQLNHILGILGAPAQEDLNCIINLKARNYLLSLPHKNKVPWNRLFPNADSKALDLLDKMLTFNPHKRIEVEQALAHPYLEQYYDPSDEPIAEAPFKFDMELDDLPKEKLKELIFEETARFQPGYRS
modifications: left off: large carriers
B1: the “reduction of phosphorylation (32P incorporation) by Act-ERK2” value is recorded as ~80%.
